From the supplement of paper PMC9170038

The sequences below were run on MS2 coat protein (assay: apparent KD of MS2 coat protein, switch ON state; designed switch direction (-1 OFF switch, 1 ON switch): -1; higher = weaker reporter binding). Details: FMN input: 0 or 200 uM; Eterna round: R93 (includes R88 designs).
Procedure, shortened: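 For every design, apparent KD is the median of normalised binding-curve fits from its clusters. The RNA switches were transcribed on-chip from Illumina sequencing clusters and titrated with SNAP-549-labelled MS2 coat protein (twofold steps, 0.7 or 1.5 nM to 3 µM; 0.8–1.5 h to 10–20 min per step). Titrations used 100 mM Tris-HCl pH 7.5, 80 mM KCl, 4 mM MgCl2, without or with constant ligand.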
For “AAAAAACAUGAGGAUCACCCAUGUCAGGAUAUGCUAUGGAAAUAAAAAAUAAAACAUAGCAGAAGGGACACCAA [Mat - Exclusion 1 - Eli mod - D48]”, the “apparent KD of MS2 coat protein” value was 31 nM.
In the case of “AAGAACCAAGGAUAUACAUGAGGAUCACCCAUGUAAAAGAAAGAGGGAAAAGAGAAAAGUAGAAGGUGGAAGAA [Ptolemy VI Philometor]”, the “apparent KD of MS2 coat protein” value is reported as 27.5 nM.
In the case of “AAAAAGAGAGGAUAUACAUGAGGAUCACCCAUGUGAAAGACGAAAAAAAGUCUAAAAUGUAGAAGGCUCAAAAA [65%, Moding Exclusion3-cac2, 13]”, the “apparent KD of MS2 coat protein” value is reported as 23.1 nM.
For “AGGUUGUCAGGAUAUGCGUGAAGAAUAAAACAAAUAACAACGCAGAAGGGACAUGAGGAUCACCCAUGUAACCA [May 53]”, the “apparent KD of MS2 coat protein” value was 35.6 nM.
In the case of “GGUUGGCGAGGAUAUACAUGAGGAUCACCCAUGUGAGAGAAGAAAGUGAGGAGGAGAAGUAGAAGGCGCUGACG [salish99-ex3-20]”, the “apparent KD of MS2 coat protein” value is reported as 51.4 nM.
With “UUUACGUGAGGAUAUGCGAAUAGUACGUAAGUCUUACAGACGCAGAAGGCACAUGAGGAUCACCCAUGUGAACC [JR_Exc004_Sub310]” the “apparent KD of MS2 coat protein” value was 22.7 nM.
For “AUGUACCUAGGAUAUACAUGAGGAUCACCCAUGUUCCGGGAGCAAUCAAGUUAAUAUUGUAGAAGGAGGUGAAA [JR_Exc003_Sub314]”, the “apparent KD of MS2 coat protein” value was 16 nM.
For “AAAAAACAUGAGGAUCACCCAUGUAAGGAUAUCAGAGAAUUAAAAAAAAAAAAAAAAAUGAGAAGGUACAAAAA [excaliber]”, the “apparent KD of MS2 coat protein” value was 31.7 nM.
For “AAUAAGUCAGGAUAUACUAAAGAAAUGAAAAGAAAUAAAGAACAUGAGGAUCACCCAUGUAGAAGGGACAAUAA [Anati Djedkare]”, the “apparent KD of MS2 coat protein” value was 100 nM.
With “AAAAAACAUGAGGAUCACCCAUGUAAGGAUAUGCUCGUCAGUGCGAAAGCACAGAUGAGCAGAAGGUACAAAAA [66%, Wbt, 43]” the “apparent KD of MS2 coat protein” value was 24.8 nM.
With “AGUGAGUCAGGAUAUUAGUGAAGAAUAAAAGAAAUAACAACUAAGAAGGGACAUGAGGAUCACCCAUGUACACA [May 58]” the “apparent KD of MS2 coat protein” value was 26 nM.
For “AGCUAGUGAGGAUAUACGAAUCUGUCAAAAGACGGAAGGGAACAUGAGGAUCACCCAUGUAGAAGGCACUAGCA [Web Mod 74% 6]”, the “apparent KD of MS2 coat protein” value was 31.9 nM.
For “AAGAAGACAGGAUAUACAAAAUAAAAGAAAAGAAAGAAAGAACAUGAGGAUCACCCAUGUAGAAGGGUCAAGAA [Sekhemkare Amenemhat V]”, the “apparent KD of MS2 coat protein” value was 69.9 nM.
“CACGUACAUGAGGAUCACCCAUGUUAGGAUAUGCCGGGUAAGAGAAAACUAAAAAUCCGCAGAAGGGACGAAAC [Bilbo Confounded 15 - Jieux - Exclusion 1]” was tested, and the “apparent KD of MS2 coat protein” value was 32 nM.
“AAAUUAGGAGGAUAUACAUGAGGAUCACCCAUGUGACGAUGUUACUGCAUGAAGUCAAGUAGAAGGUCUAAGAA [Cearar]” was tested, and the “apparent KD of MS2 coat protein” value was 31.7 nM.
For “GCUUGUGAAGGAUAUACAUGAGGAUCACCCAUGUGAGAGAAAAAAGUGAGAAAGAAAAGUAGAAGGUCGUGAGG [salish99-ex3-79]”, the “apparent KD of MS2 coat protein” value was 36.1 nM.
With “AAAAAGUCAGGAUAUACGUAAGUGCGAAAGCACAAAUGGAAACAUGAGGAUCACCCAUGUAGAAGGGACAAGAA [JL In the Red 02 (Mod)]” the “apparent KD of MS2 coat protein” value was 36.7 nM.
With “AAGAAGAGAGGAUAUACAUGAGGAUCACCCAUGUAAAAGAAAGAAAGGGAAAAGAAAAGUAGAAGGCUCAAGAA [Neferkare-setpenre Ramesses IX]” the “apparent KD of MS2 coat protein” value was 34.6 nM.
In the case of “AAUAAGUGAGGAUAUCCAAAUAGUAGAUAAGAUUCCCUAAAGGAGAAGGCACAUGAGGAUCACCCAUGUAAAUA [JR_Exc004_Sub006]”, the “apparent KD of MS2 coat protein” value is reported as 36.1 nM.
“AGAAAACAUGAGGAUCACCCAUGUAAGGAUAUGCUGAAAAACACGGAAAAAACGUGCAGCAGAAGGUACAAAAA [Mat - Exclusion 1 - Eli mod - D97]” was tested, and the “apparent KD of MS2 coat protein” value was 17.8 nM.
In the case of “AAGAAGUGAGGAUAUACAAAAUAAAAGAAAAGAAAGAAAGAACAUGAGGAUCACCCAUGUAGAAGGCACAAGAA [Sekhemkare Amenemhat V]”, the “apparent KD of MS2 coat protein” value is reported as 22 nM.
“AAAGAUGGAGGAUAUACAUGAGGAUCACCCAUGUAAAAAAAAAAGAGGGAAAAAGAAAGUAGAAGGCCACAAAA [Ex 3 May 44]” was tested, and the “apparent KD of MS2 coat protein” value was 83.1 nM.
With “AAGAACUUAGGAUAUACAAGGAAGAAAGAAAAGAAAAGAAAACAUGAGGAUCACCCAUGUAGAAGGAAGUAGAA [EteRNA is fun!]” the “apparent KD of MS2 coat protein” value was 40.9 nM.
For “AGGCAGACAGGAUAUACUUGGGCAGCCAGUAUGGUAAUAUAACAUGAGGAUCACCCAUGUAGAAGGGUCAGAAA [JR_Exc002_Sub210]”, the “apparent KD of MS2 coat protein” value was 94.3 nM.
“AAAGGAUCAGGAUAUGUGUGGAAAAAGUGUAUCCAAAAAAAACAUGAGGAUCACCCAUGUAGAAGGGAUCCAAA [Mod 2 of Normal (20/19) by Nando, Round 1]” was tested, and the “apparent KD of MS2 coat protein” value was 177 nM.
For “AAAAAACAUGAGGAUCACCCAUGUAAGGAUAUGCAAAACCCAUAUAAAAAGGGAAAAAGCAGAAGGUGCAAAAA [wbt round 1 mod 5]”, the “apparent KD of MS2 coat protein” value was 23.7 nM.
“GGUUGGCGAGGAUAUACAUGAGGAUCACCCAUGUGAGAGAAAAAAGUGAGAAAGAAACGUAGAAGGCGCUGACG [salish99-ex3-30]” was tested, and the “apparent KD of MS2 coat protein” value was 88.4 nM.
For “CUCUUGUCAGGAUAUCAAAGAAAAGAAAAGAAAGAAAAGAAUGAGAAGGGACAUGAGGAUCACCCAUGUAAGAA [EteRNA is fun!]”, the “apparent KD of MS2 coat protein” value was 32.1 nM.
With “AAAUUGUCAGGAUAUCGUAUAAUAUGGAAAACAUAGAGAUACGAGAAGGGACAUGAGGAUCACCCAUGUAAAAC [May 96]” the “apparent KD of MS2 coat protein” value was 36.1 nM.
With “AUGUAGGUAGGAUAUGCAUAGAUACAGAUUCAUGUGGAACUACAUGAGGAUCACCCAUGUAGAAGGACCUAAAA [Mat - Same state - Mayanna Mod - D126]” the “apparent KD of MS2 coat protein” value was 20.2 nM.
With “AAAAUGUGAGGAUAUGUACGAAAAAAUAAAAAAAUAAAAGUACAGAAGGCACAUGAGGAUCACCCAUGUGGGAA [EX4 399: Minimal 12]” the “apparent KD of MS2 coat protein” value was 158 nM.
In the case of “CAUAGGCGAGGAUAUACAUGAGGAUCACCCAUGUAAGGAAACCUGGCAGACUCAGAAUGUAGAAGGCGCACUGA [Ex3_Neo]”, the “apparent KD of MS2 coat protein” value is reported as 17.1 nM.
“AAUAAGAGAGGAUAUACUAAAGAAAUGAAAAGGGAUAAAGAACAUGAGGAUCACCCAUGUAGAAGGCUCAAUAA [Khyan]” was tested, and the “apparent KD of MS2 coat protein” value was 24.3 nM.
In the case of “AGGGUACAUGAGGAUCACCCAUGUUAGGAUAUACAAAAGAAAAGAAAAGAAAGAAGAAGUAGAAGGGACAAGAA [Teti]”, the “apparent KD of MS2 coat protein” value is reported as 45.5 nM.
In the case of “AAAAAUGGAGGAUAUACAUGAGGAUCACCCAUGUGUGGGUAUACUGUGUCGGCGUCAGGUAGAAGGCCAAAAAA [Gilly Gone Silly 28 - Jieux - Exclusion 3]”, the “apparent KD of MS2 coat protein” value is reported as 132 nM.
In the case of “GAAACUAGAGGAUAUACGUACAUGUCAAAAGACGUGAAGGGACAUGAGGAUCACCCAUGUAGAAGGCUAGAAAG [Mat - Exclusion 2 - JL mod - D98]”, the “apparent KD of MS2 coat protein” value is reported as 47.8 nM.
“AACAGGUCAGGAUAUGUGGAAAAAAUAAAAAAAAUAAAAACACAGAAGGGACAUGAGGAUCACCCAUGUAAAAA [May 20]” was tested, and the “apparent KD of MS2 coat protein” value was 59.5 nM.
In the case of “AGUUGGCGAGGAUAUACAUGAGGAUCACCCAUGUAAAAUAAAUAAAAAAUAAAAGGGAGUAGAAGGCGCUGACA [73%, Moding Norbert Elias, 16]”, the “apparent KD of MS2 coat protein” value is reported as 41.9 nM.
With “AACAUGUGAGGAUAUAAAAUGAAUAUAAAUUAUUAUCUUGAUUAGAAGGCACAUGAGGAUCACCCAUGUCUGAA [E4-1.2]” the “apparent KD of MS2 coat protein” value was 23.8 nM.
“GGAAAACAUGAGGAUCACCCAUGUAAGGAUAUGCAAAGGAUAUAGAAGGAAAAAAAAAGCAGAAGGUACAAAGG [salish99-ex1-20]” was tested, and the “apparent KD of MS2 coat protein” value was 26.5 nM.
“AGAAAGUCAGGAUAUACGAAUAAGAAAAAAGACGAGAACGGACAUGAGGAUCACCCAUGUAGAAGGGACAAGAA [Diamond 15]” was tested, and the “apparent KD of MS2 coat protein” value was 91.2 nM.
With “GAAAAGUGAGGAUAUGUCAAAAGUCACAAAAGUGACAAAAGACAGAAGGCACAUGAGGAUCACCCAUGUGGAAA [Mat - Exaclusion 4 - Eli mod - D51]” the “apparent KD of MS2 coat protein” value was 30.9 nM.
“UAGAUACAUGAGGAUCACCCAUGUGAGGAUAUCGUUUGUACUAAUCUUUUAGUAUUUUCGAGAAGGCACAUAUA [Ex1Try2_Neo]” was tested, and the “apparent KD of MS2 coat protein” value was 48.5 nM.
In the case of “ACUUAGACAGGAUAUACGUGAGUGGAAAAAGUGUUUCCACUACAUGAGGAUCACCCAUGUAGAAGGGUCUAAGA [Ex2 Design 181: Random 6B]”, the “apparent KD of MS2 coat protein” value is reported as 48.8 nM.
“AAAAAGUCAGGAUAUGUGGAAAAAAUAAAAAAAAUAAAAACACAGAAGGGACAUGAGGAUCACCCAUGUAAAAA [Ex 4 May 19]” was tested, and the “apparent KD of MS2 coat protein” value was 71.7 nM.
